Biological target: Mig1 (Xanthophyllomyces dendrorhous) (UniProt A0A1C9UL02)
Assay: EMSA
Conditions: 20 mM HEPES pH 7.9, 50 mM KCl, 1 mM DTT, 0.1 mM EDTA, 5% glycerol (+2.5%), 200 ug/ml BSA, 50 ng/ul poly(dI-dC), 0.05% NP-40, 20 fmol DNA, 10 ug Mig1 in 20 ul …

Sequence of Mig1 (Xanthophyllomyces dendrorhous) (A0A1C9UL02 entry or part of it): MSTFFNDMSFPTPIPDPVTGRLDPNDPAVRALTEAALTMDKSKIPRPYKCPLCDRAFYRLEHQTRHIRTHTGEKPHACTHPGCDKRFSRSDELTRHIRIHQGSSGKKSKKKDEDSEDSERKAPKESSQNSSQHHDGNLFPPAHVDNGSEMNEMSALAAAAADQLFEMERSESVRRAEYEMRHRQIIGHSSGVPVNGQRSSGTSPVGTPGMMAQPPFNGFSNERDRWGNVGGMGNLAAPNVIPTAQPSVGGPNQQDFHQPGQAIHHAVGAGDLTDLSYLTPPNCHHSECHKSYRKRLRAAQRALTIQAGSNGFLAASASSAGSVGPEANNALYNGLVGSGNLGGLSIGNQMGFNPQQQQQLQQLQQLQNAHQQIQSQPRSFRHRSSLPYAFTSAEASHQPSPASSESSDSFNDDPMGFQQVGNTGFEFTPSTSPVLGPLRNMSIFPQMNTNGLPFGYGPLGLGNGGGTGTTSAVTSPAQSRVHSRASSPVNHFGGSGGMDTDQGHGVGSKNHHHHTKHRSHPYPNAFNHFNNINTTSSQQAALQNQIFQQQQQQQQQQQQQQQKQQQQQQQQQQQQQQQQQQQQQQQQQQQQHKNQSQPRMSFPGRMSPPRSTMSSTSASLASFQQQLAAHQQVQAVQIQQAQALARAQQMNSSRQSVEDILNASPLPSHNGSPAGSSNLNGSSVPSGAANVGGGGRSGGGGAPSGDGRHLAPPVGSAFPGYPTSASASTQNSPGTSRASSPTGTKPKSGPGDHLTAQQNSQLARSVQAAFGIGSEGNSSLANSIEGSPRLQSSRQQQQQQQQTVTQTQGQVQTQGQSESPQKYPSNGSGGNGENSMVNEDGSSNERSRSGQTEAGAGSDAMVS

GAAGATGATGCGGCGGCAACTGGTTCTGGGCTGGGGAACACCCTATTCGACCGGTTGAATGAGTCACAATCGGCCGGCAGCCCTGCTGCAGGCACCGGCGCAAGTGGCTCCGGACCGAAGCCTCGCCAGCAGTTGATCAAGCGAACCAAGCCGAACAATCCTGGCGCGCCTGGAGGAGCGGGAGCGGGAGGAGCAGCAGGTGATGCATC (double strand) [crtS promoter boxes C-D 209 bp]
binding: binds

Source: article PMC5021340
